According to patent US20240218024A1, “METHODS AND COMPOSITIONS FOR TREATMENT OF VIRAL INFECTION” (TECHNION RESEARCH & DEVELOPMENT FOUNDATION LIMITED, priority 2021, published 2024):

Columns and labels:
SARS-COV-2 delta variant = assay type: cell-based; details: slncRNA alone, low concentrations (potentially a non-specific effect at higher concentrations)
[1] = test system: SARS-COV-2 omicron variant; assay type: cell-based; details: slncRNA alone, low concentrations (potentially a non-specific effect at higher concentrations)

B1: PCP-14×/MCP-15×: class II slncRNA with fourteen PCP binding sites spaced by hairpins that do not bind PCP (SEQ ID NO: 28) (nucleic acid)
chain: GAGAAACGTTTCGACATTATATGGAATGCGAAAGTGGAACGTAATGGACATGAAGACGATTACGCTTCACACGGAGGATGCGGGAAACATGAAGATCACCCATGTTCGCTTAACCATGGATAGGGATCACCCATGTTGCGGTGGTGCGTCAACCAGAGATTTCATATGGGAAACTCTGGGACACGCTGTATTTATACATGAGGATCACCATGTGTGCTTAAATATGGGTAAGTTGACCATTAGGCAACTGTAAGATGCTCCGGTTAATTCCAGTTTATATGGAAACGGAATTGATGTACCGTTGAGCAAGAACACGATTACGGTTCTTCGATTAGATATGGTTTAAACGACAATATATGGATTGCGTTTTGGGGCACGCCGTCTGGAGAAGACCATTAGGCTTCTTTACTGCGACCGCAATAAAAGGAGATTATATGAAATCCCTTTGCGCGCAACCGGGTAGAAGATCACCATTAGGGATCTGTAACTCACGGCGCTATTACGAGTCAATATGGTGACCGTAAAGCTAGGGCATGTGCCAGAAGAGCATTAGCCTTCTCCTTGGTGGGGAAGCGATAAGCACATTATAAGGAATGGCTTAAAGTGGTGCGGCGGGGGACTTGACCATTAGGCAAGTGTGCTAGACCCTGGTCTTTTCGAGAAAATATGGTTTCCGAAAGAACTATACGAAGTGACATGCGAGGATTACCCGCATATGGTGCAAATGGGAGAATTGGAGTAAATATGGTTACCCAATAGGCTAGAGCATGACGGCAGTGAGAATTATCCACTGGTTAGCGGGTTACCGAGATTGCACATTATATGGAATGGCAATTGATTCATGCCGGTCGTTTGTGAGGAGTACCCACAAAATGGGAGGGTGCTATATAACCAGGTTATATGCAACCGGTTAGGCCGTTGTGTTAGTTTAGTTCAGCATTAGCGAACTGTGCAAGACCCGGTGGCTAAGGAGTTTATATGGAAACCCTTAGCCCTCGAGCATGCTAACATGAGGATTACCCATGTGATGGGTTTGAAACGTGCAATTATTTGATATGGCAAAAATTGGGTAGGGCATGGCTGCAGCGTGAGAATTATCCACGCTAGGCTAGAGCATGGCGGTATTGAGTTCGGGTTTGAGATGACCATTAGGCATCTGTGCTAGAGCATGCGAAAACGACATAATATGGTATGCGTTTTGGGGTGCTAGTATACCACATGATGAGCACACATGTATGGGTGGGAGGTAGAGGGATTCTCGCGAGAAGA
With B1 the antiviral response (SARS-COV-2 delta variant) was “no substantial antiviral response” and the antiviral response [1] was “no substantial antiviral response”.
